Measurements reported in the nanobody polyreactivity screen of Harvey et al. (2022).

Experiment: yeast display, Sf9 membrane polyspecificity reagent, FACS + sequencing; frameworks hold sequencing errors
In short: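 Galactose-induced (36–48 hours) yeast carrying a synthetic nanobody display library were exposed to 10% biotinylated, detergent-solubilized Sf9 membrane reagent at 4 °C for 1 hour. FACS followed streptavidin microbead enrichment, using low and high (top ~1%) gates for expression (anti-HA) and reagent binding (streptavidin). Colony PCR, MiSeq 2 × 250 sequencing and CDR-length filtering followed. Labels for polyreactivity reflect the gate of origin.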

QVQLVESGGGLVQAGGSLRLSCAASGGIFVTYAMVWYRQAPGKERELVAAITSGGTTYYADSVKGRFTISRDNAKNTVYIQMNSLTPEDTAVYYCAARYYPGYYYPPLDYWGQGSQVTVSS
polyreactivity (PSR sort gate): low polyreactivity

QAQLQESGGGLVQADGSLRLCCAASGSIFQTIYMGWYRQAPGKERELVASIDIGANTDYAVSVKGRFTISRDNAKNSVYLQMHSLKPEDTAVYYCAARYSRGRLLVSRGNYWGQGTQVTVSS
polyreactivity (PSR sort gate): high polyreactivity

QVKLVESGGGLVQAGGSLRLSCAASGSTFYQNAMGWYRQAQGKEREFVAAISGSGDRTNYADSVKARFTISRDNAKNTVYLQMNSLKPEDTAVYFCAARGQPGRRTSSGFFSGGYCGQGTQVTVSS
polyreactivity (PSR sort gate): high polyreactivity

QVQLVESGGGLVQAGGSLRLSCAASGSTFRYYAMGWYRQAPGKERELVAAITSSGGSTYYADSVKGRFTISRDNAKNTVYLQMNSLKPEDTAVYYCAVAVKNWVKLNYWGQGTQVTVSS
polyreactivity (PSR sort gate): high polyreactivity

QVHLVESGGGLVQAGGSLRLSCAAAGSTVVYNVMGWYRQAPGKERELVAAIRWRGGSTYADSVKGRFTISRDNAKKTVYLQMNSLKPEDTAVYYCAAGIPRYWYAGHYDYWGQGTQVTVSS
polyreactivity (PSR sort gate): low polyreactivity

QVQLVESGGGLVQAGGSLRLSCAASGSIFRVYAMGWYRQAPGKERELVAAIRSGGGTNYADSVKGRFTISRDNAKITVYLQMNSLKPEDTAVYYCAREAATDISPGYDYWGQGTQVTVSS
polyreactivity (PSR sort gate): low polyreactivity

QVQLVESGGGLVQAGGSLRLSCAASGGIFNYYAMGWYRQAPGKERELVAAISASGGSTYYADSVKGRFTISRDNAKNTVYLQMNSLKPEDTAVYYCAAGLPYGYGYDYWGQGTQVTVSS
polyreactivity (PSR sort gate): low polyreactivity

QVQLVESGGGLVQAGGSLRLSCAASGSTFEGNVMGWDRQATGKERELVATITGSGGRTYADSVKGRFTISRDNAKNTVYLQMNSLKPEDTAVYYCYAVSTASDEYDYWGQGTQVTVSS
polyreactivity (PSR sort gate): low polyreactivity

QVQLVESGGGLVQAGGSLRLSCAASGFTFGPNTMGWYRQAAGKERELVATITWRGDGSTYYADSVKGRFTISRDNAKNTVYLQMNSLKPEDTAVYYCAAVIRPFSRRDMYYWGQGTQVTVSS
polyreactivity (PSR sort gate): low polyreactivity

QVQLVESGGGLVQAGGSLRLSCAASGSILGYYAMGWYRQAPGKERELVAAITASGGSTYYADSVKGRFTISRDNAKNTVYLQMNSLKPEDTAVYYCAARRIAPYGRYDYWGQGTQVTVSS
polyreactivity (PSR sort gate): low polyreactivity

QVQLVESGGGLVQAGGSLRLSCAASGSTLGRYAMGWYRQAPGKERELVASITWSDDSTYYADSVKGRFTISRDNAKNTVSLQMNSLKPEDTAVYYCAAAANLYTYRFYYWGQGTQVTVSS
polyreactivity (PSR sort gate): low polyreactivity

QVQLVESGGGLVQAGGSLRLSCAASGGTLRYYAMGWYRQAPGTEREFVASIARSGGSTYYADSVKGGFTISRDNAKNTVYLQMNRLKPEDTAVYYCADRVRLYRGFTKYDYWGQGTQVTVSS
polyreactivity (PSR sort gate): high polyreactivity

QDQHVESGGGLVQAGGSLRLSCAASGSTLYRYAMGWYRQAPGKERELVAAISSAGSTHYADSVKGRFTISRDNAKNTVYLQKNSLKPEDTAVYYCAKVVKKIEFDYWGQGTQVTVSS
polyreactivity (PSR sort gate): high polyreactivity

QVQLVESGGGLVQAGGRLRLSCAASGLIFRTYTMVWYRQAPGKERELVATITRRGGTTYYADSVKGRFTISRDNAKNTVYLQMNSLKPEDTAVYYCAAKSAYHGLVGGYYYWGQGTQVTVSS
polyreactivity (PSR sort gate): high polyreactivity

QVQLVESGGGLVQAGGSLRLSCADSGSIFWGYAMGWYRQAPGKERELVAVISRGGSTYYADSVKGRFTISRDNAKNTVYLQMNSLKPEDTAVYYCAASSSWFYSPEYDYWGQGTQVSVSS
polyreactivity (PSR sort gate): low polyreactivity

QVQLVESGGGLVQAGGSLRLSCAASGYIFGYYVMGWYRQAPGKERELVAAISGRGGRTYYADSVKGRFTISRDNAMNTVYLQMNSLKPEDTAVYYCAAADLPGTMYYWGQGTQVTVSS
polyreactivity (PSR sort gate): high polyreactivity

QVQLVESGVGLVQAGGSLRLSCAASGRIFTGYAMGWYRQAPGKERELVAAITSSGDGTNYADSVKGRFTISRDNAKNTVYLQMNSLKPEDTAVYYCNADGSYKMDWGQGTQVTVSS
polyreactivity (PSR sort gate): low polyreactivity

QVQLVESGGGLVQAGGSLRLSCAASGSTFNRNAMGWYRQAPGKERELVASISSGDNTKYADSVKGRFTISRDNAKNTVYLKMNSLKPEDTAVYYCNTVNKSLYAGLRKRWGGYYYWGQGTQVTVSS
polyreactivity (PSR sort gate): high polyreactivity

QVQLVESGGVLVQAGGSLRLSCADSGRTFYTNAMGWYRQAPGKERELVAAITGSDGNTYYADSVKGRFTISRENAKNTVYLQMISLKAEDTAVYYGFDYWVQGTQVTVSS
polyreactivity (PSR sort gate): low polyreactivity

QVQLVDSGGGLVQAGGSHRLSCAASGRIFGDNAMGWYRQAPGKERELVAAIDWNDGNTYYADSVKGRFTISRDNANNTVYLQMNSLKPEDTAVYYCNTAGQDAEYDYWGQGTQVTVSS
polyreactivity (PSR sort gate): low polyreactivity

QVQLVESGGGLVQPGGRLRLSCAASGFTFHDYAMGWYRPAPGKERELVAAITKSGGRTYYADSVKGRFTISRDNAKNTVYLQMNSLKPEDTAVYFCAAASYRSQYDYYYWGQGTQVTVSS
polyreactivity (PSR sort gate): high polyreactivity

QVQLVESGGGLVQAGGSLRLICAASGRIFHYYAMGWYRQAPGKERELVAAIRWSGGDTYYADSVKGRFTISRDNAKNTVYLQMNSLKPEDTAVYYCAAYDHVYEYDYWGQGTQVTVSS
polyreactivity (PSR sort gate): low polyreactivity

HVQLVESGGGVVQAGGSLRLSCAASGIIFYYYTMGWYRHAPGKQRELVAAISTSGGRTYYADSVKGRFTISRDTAKNTVYLQMNSLKPEDTAVYYCNARSRHTTLDYWGQGTQVTVSS
polyreactivity (PSR sort gate): high polyreactivity

QVQLVESGGGLVQAGGSLRLSCAASGGIFSWYDMGWYRQAPGKEREFVATITYSGGSTYYADSVKGRFTISRDNAKNTVYLQMNSLKPEDTAVYYCAAARYWYRRFDYWGQGTQVTVSS
polyreactivity (PSR sort gate): high polyreactivity

QVQLVESGGGLVQAGGSLRLSCAASGRIFSSNAMGWYRQAPGKEREFVAAISWRTGSTYYADSVKGRFTISRDNAKNTVYLQMNSLKPEDTAVYYCAAVYWTFWGTIATRYDYWGQGTQVTVSS
polyreactivity (PSR sort gate): high polyreactivity

QVQLVESGGGLVQAGGSLRLSCAASGRIFRPYAMGWYRQAPGKERELVASITRGGSTDYADSVKGRFTISRDNAKNTVYLQMNSLKPEDTAVYYCNKVWRFGYYGSYYWGQGTQVTVSS
polyreactivity (PSR sort gate): high polyreactivity

QVQLVESGGGLVQAGGSLRLSCAASGSTFSGNAMGWYRQAPGKERELVAAISQSGGSTYYADSVKGRFTISRDNAKNTVYLQMNSLKPEDTAVYYCNRLYYFLARRMDSWGQGTQVTVSS
polyreactivity (PSR sort gate): high polyreactivity

QVQLVESGGGLVQAGGSLRLSCAASGSIFNYYAMGWYRQAPGKVRELVATISSGGNTKFADSVKGRFTISRDNAKNTVYLQMKSLKPEDTAVYFCGARWQHSGYRDRYCYDYWGQGTQVTVSS
polyreactivity (PSR sort gate): low polyreactivity

QVQLVESGGGLVQAGGSLRLICAASGRTFVYYAMGWYRQAPGKERELVAAITRSGGRTYYEDSVKGSFTISRDNAKNNVYLQMNSLKPEDTAVYYCAARYWDNPFWFDYWGQGTIVTVSS
polyreactivity (PSR sort gate): high polyreactivity

QVQLVESGGRLVQAGGSLRLSCAASGRTFSTYDMGWSRQAPGKERELVAAITSTGDTPYYADSVKGRFTISRDTAKNTVYLQLNSLKPEDTAVYYCAAYASWHQWIYAFYGLDYWGQGTQVTVSS
polyreactivity (PSR sort gate): low polyreactivity

QVQLVESGGGLVQAGGSLRLSSASSGFTFNKYAMGRYRQAPGKERELVAAISSSGGSTRYADSVKGRFTISRDNAKNTVYLQMNSLNPEDTAVFYCAVYVTRDSGWLLYDYWGQGTQVTVSS
polyreactivity (PSR sort gate): high polyreactivity

RVQLQESGGGLVQAGGTLRLSCAASGTIFIRGDMGWYRQAPGKEREFVATIDTGSNTYYADSEKGRFTISRDNAKKAVYLQMNCLKPGDTAVYYCVVDYQLSGRLWDWGQGTQVTLSS
polyreactivity (PSR sort gate): low polyreactivity

QVQLVESGGGLVQAGGSLRLSCAASGFTFRGNAMGWYRQAPGKERELVAAITSSDDSTYYADSVKGRFTISRDNAKNTVYLQMNSLKPEDTAVYYCAAVANGYWTYEYWGQGTQVTVSS
polyreactivity (PSR sort gate): low polyreactivity

QVQLVESGGGLVQAGGSLRLSCAASGLIFVGYAMGWYRQAPGTERELVAAITSGGSTNYADSVKGRFTISRDNAKNTVYLQMNSLKPEDTAVYYCAASDAIPLRYDYWGQGTQVTVSS
polyreactivity (PSR sort gate): low polyreactivity

QVQLVESGGGLDQAGGSLRLSCAASGSIFNFYALGWYRQAPGKERELVAAISWSAGSTYYADSVKGRFTISRDYAKNTVYLQMNSLKPEDTAVYYCAADRYAYDWIQYYYHFLYDYWGQGTQVTVSS
polyreactivity (PSR sort gate): low polyreactivity

QVQLVESGGALVQAGGSLRLSCAASGSTFSWYAMGWYRQAPGKERELVAAITTRGGSTYYADSVKGRFTISRDNAKNTVYLQMTRLKPEDTAVYYCAADDGWDFGRGRYDYWGQGTQVTVSS
polyreactivity (PSR sort gate): low polyreactivity

QVQLVESGGGLVQAGGSLRLSCAASGHIFGRYAMGWYRQAPGKERELVAAITSGGRTNYADSVKGRFTISRDNAKNTVYLQMNSLKPEDTAVYYCAAYSWYFGSRYDYWGQGTQVTVSS
polyreactivity (PSR sort gate): low polyreactivity

QVQLVESGGGLVPAGGSLRLSCAASGRTFYSYGMGWYRQAPGKERELVASISSSTGSTYYADSVKGRFTISRDNAKNTVYLQMNSLKPEDTAVYYCAKRYSWTRRYDYWGQGTQVTVSS
polyreactivity (PSR sort gate): high polyreactivity

QVQLVESGGGLVQAGGSLRLSCAASGIIFQAYAMGWYRQAPGKERELVAAISYSGGSTYYADSVKGRFTISRDNAKNTVYLQMNSLKPEDTAVYYCAATFYGYFDSVFSWGYYYWGQGTQVTVSS
polyreactivity (PSR sort gate): low polyreactivity

QVQLVESGGGLVQAGGSLRLSCAASGRIFRYYAMGWYRQAPGKERELVAAISRGGSTNYADSVKGRFTISRDNAKNTVYLQMNSLKPEDTAVYYCAAVYHSRVWYGYDSKFEYWGQGTQVTVSS
polyreactivity (PSR sort gate): high polyreactivity

QVQLVESGGGLVHAGGSLRLSCAASGFTFDSNDKGWYRQAPGKERELVAAISTGGSTYYADSVKGRFTISRDNAKNTVYLQMNRLKPEDTAVYYCARDPPYPDTWYGYWGQGSQVTVSS
polyreactivity (PSR sort gate): low polyreactivity

QVQLVESGGGLVQAGGSLRLSCAASGFTFYYYTMGWYRQAPGKERELVAAITLSGSTTYYADSVKGRFTISRDNAKNTVYLQMNSLKPEDTAVYYCAAGFSYEWGYPTFDYWGQGTQVTVSS
polyreactivity (PSR sort gate): low polyreactivity

QVQLVESGGGLVQAGGSLRLSCAASGSIFGGYAMGWYRQAPGKERELVATSYADSVKGRFTISRDNAKNTVYLQMNSLKPEDTAVYYCAADPPLEGGHGYNYWGQGTQVTVSS
polyreactivity (PSR sort gate): low polyreactivity
